Biological target: T1, PrimPolY89D1-354 (polymerase domain) (human, UniProt Q96LW4 1-354, Y89D)
T1 sequence: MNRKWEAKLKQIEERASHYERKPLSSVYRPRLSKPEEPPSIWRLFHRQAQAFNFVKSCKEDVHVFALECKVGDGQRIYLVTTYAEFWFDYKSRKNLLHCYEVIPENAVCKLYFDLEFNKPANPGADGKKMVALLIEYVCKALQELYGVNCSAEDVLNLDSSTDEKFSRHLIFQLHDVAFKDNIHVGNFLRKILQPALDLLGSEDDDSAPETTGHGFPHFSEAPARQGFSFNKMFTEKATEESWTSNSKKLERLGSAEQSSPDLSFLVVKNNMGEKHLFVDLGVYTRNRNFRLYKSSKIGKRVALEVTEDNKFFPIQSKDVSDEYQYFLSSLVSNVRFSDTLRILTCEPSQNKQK
Test: EMSA; 10 mM Mg2+; EMSA: 60 nM DNA, 10 mM Bis-Tris-Propane-HCl pH 7.0, 10 mM MgCl2, 1 mM DTT, 25 C, 60 min; 5% polyacrylamide gel in 0.5x TBE
Settings: protein: recombinant; label: 5'-Hex on strand 1 (HP-20); 20 bp duplex, 5' overhang 30 nt on template strand (S12), other end blunt

B1: Overhanging DNA substrate (HP-20 primer / ND-50 TemplateTT) (dsDNA)
DNA 1: TGTCGTCTGTTCGGTCGTTC
DNA 2: CGCGCAGGGCGCACAACAGCCTTGAAGACCGAACGACCGAACAGACGACA
B1 was tested, and the Kd was 2.55 µM.

Reference: paper PMC4231748, “Human PrimPol mutation associated with high myopia has a DNA replication defect”
